Results on 3 molecules are retold here after patent US20200123547, “NUCLEIC ACID-BASED ASSEMBLY AND USES THEREOF” (Rheinische Friedrich-Wilhelms-Universität Bonn, published 2020).

The IC50 is the concentration that gives 50% inhibition. Lower therefore signals greater potency in that assay.

In data set [1] the target is T1, cMet (HGFR) ectodomain, cMet-Fc (human, UniProt P08581 P08581:25-932). As to the kind of experiment: competition; filter retention vs 32P-trCLN3; ~50 nM cMet; 1x PBS pH 7.4, 2 mM MgCl2, tRNA, BSA, 37 C. To be noted: tags: Fc domain of human IgG1 fusion, R&D Systems; chain copies: 2; G4, micellar nanoconstruct above CMC 300-350 nM. The procedure: (§1) To determine the affinity, ˜25 fmol of radiolabeled aptamer was incubated with a cMet concentration of ˜50 nM together with varying concentrations (1 μM-25 μM) of unlabeled competitor for 30 min at 37° C. in 25 μL of buffer containing 0.1 mg/ml E.coli tRNA (Roche, Mannheim, Germany), 0.25 mg/ml BSA, 2 mM MgCl₂ in 1× PBS, pH 7.4. The aptamer-protein complexes were captured on a Protran nitrocellulose membrane (GE Healthcare) that was pre-incubated in 0.4 M KOH for 10 minutes, followed by washing with 1× PBS containing 2 mM MgCl₂, pH 7.4. After addition of the aptamer-protein solution, the filter was washed 4 times with lx PBS containing 2 mM MgCl₂ using vacuum filtration. Residual radioactivity due to cMet bound labeled aptamers was quantified using Fujifilm Fla-3000 Phosphorlmager and AIDA software. The curves were fitted with GraphPadPrism 3.02 plotting non-linear regression curve and the IC₅₀ values have been calculated assuming a competition for single binding site.
(§2) To test the influence of lipid tails on aptamer binding, a competitive filter-binding assay was carried out using the methodology above. Varying concentrations of unlabeled 5′-lipid functionalized aptamer 3 and its two-point mutant variant trCLN3.mut-L4 (see Example 2.3) competed with a constant amount of ³²P-radio-labeled native trCLN3 aptamer in binding to cMet.

Data set [2] deals with T1, cMet (HGFR) ectodomain, cMet-Fc. Description: filter; almost no binding in filter retention assay. To be noted: tags: Fc domain of human IgG1 fusion, R&D Systems; chain copies: 2.
Data set [3] shares this target. As to the kind of experiment: competition; no competition with 32P-trCLN3 within tested concentration range. As to conditions: tags: Fc domain of human IgG1 fusion, R&D Systems; chain copies: 2. Here is the method:
as §1, §2

T1 sequence (P08581 25-932, one chain of several): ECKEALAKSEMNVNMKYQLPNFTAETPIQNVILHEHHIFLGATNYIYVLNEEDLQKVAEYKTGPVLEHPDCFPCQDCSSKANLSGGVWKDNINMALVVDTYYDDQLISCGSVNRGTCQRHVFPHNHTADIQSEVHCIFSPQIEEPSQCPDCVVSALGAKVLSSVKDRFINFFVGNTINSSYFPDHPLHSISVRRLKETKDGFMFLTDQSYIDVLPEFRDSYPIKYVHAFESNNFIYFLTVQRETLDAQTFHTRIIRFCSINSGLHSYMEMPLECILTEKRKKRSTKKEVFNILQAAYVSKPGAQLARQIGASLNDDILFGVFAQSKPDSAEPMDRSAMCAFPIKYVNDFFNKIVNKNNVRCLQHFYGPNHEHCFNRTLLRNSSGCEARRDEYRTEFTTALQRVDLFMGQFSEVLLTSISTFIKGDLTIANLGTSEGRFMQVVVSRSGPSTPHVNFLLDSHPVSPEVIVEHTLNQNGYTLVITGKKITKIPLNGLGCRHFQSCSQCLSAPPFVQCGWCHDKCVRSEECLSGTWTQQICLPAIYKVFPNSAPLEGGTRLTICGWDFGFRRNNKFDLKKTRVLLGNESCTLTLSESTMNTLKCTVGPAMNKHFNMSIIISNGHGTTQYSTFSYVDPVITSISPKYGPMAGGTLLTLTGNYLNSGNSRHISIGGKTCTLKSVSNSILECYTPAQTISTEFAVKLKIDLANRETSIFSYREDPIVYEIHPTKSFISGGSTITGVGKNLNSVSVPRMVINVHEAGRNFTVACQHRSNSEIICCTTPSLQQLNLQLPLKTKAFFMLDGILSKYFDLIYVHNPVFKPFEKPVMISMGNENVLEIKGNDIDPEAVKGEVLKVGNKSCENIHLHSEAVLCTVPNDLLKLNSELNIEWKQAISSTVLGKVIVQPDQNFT

B1: trCLN3-L4 (structured_DNA)
DNA: TGGATGGTAGCTCGGTCGGGGTGGGTGGGTTGGCAAGTCT
modifications: four 5-(1-dodecynyl)-2'-deoxyuridine (C12 lipid) residues at 5' end
In the case of B1, in data set [1], the half-inhibitory concentration (IC50) is 43 nM.

B2: trCLN3.mut (ssDNA)
DNA: TGGATGATAGCTCGGTCGGGGTGGATGGGTTGGCAAGTCT
In the case of B2, the binding result in data set [2] is reported as “no binding”.

B3: trCLN3.mut-L4 (ssDNA)
DNA: TGGATGATAGCTCGGTCGGGGTGGATGGGTTGGCAAGTCT
modifications: four 5-(1-dodecynyl)-2'-deoxyuridine (C12 lipid) residues at 5' end
As to B3, in data set [3], the binding result is listed as “no binding”.
